In patent US20150071856A1, “ANTAGONISTIC PEPTIDES FOR FRIZZLED-1 AND FRIZZLED-2” (Universiteit Maastricht, priority 2013, published 2015):

Columns and labels:
[1] = molecular target: T1, frizzled-2 (rFzd-2) (Rattus norvegicus, UniProt Q08464); test: Activity assay: luciferase reporter in HEK superTOPflash cells transfected with frizzled-2; assay type: cell-based; conditions: FIG. 3
T1 construct: expressed in transfected cells; host or cells: HEK293 superTOPflash (transient, Fugene6, pcDNA3.1/hygro)
Procedure: Human embryonic kidney (HEK) cells were used for screening. These cells have a luciferase construct stably transfected into the genome (see FIG. 2A), such that when the frizzled receptor is activated and β-catenin is increased, the luciferase is activated by transcription and light can be measured.
The peptides were tested by transfecting the frizzled-1 or the frizzled-2 receptor and addition of UM206(S-S) to the cell culture. For testing antagonistic activity, UM206 was added and the natural ligand Wnt3a was added, which is a natural stimulus for the canonical pathway.
Day 2: Transfection 12-Well Plates • heat Fugene6 and DNA 15 minutes at RT • 2 ml serum-free medium in tube • add 3 μl fugene • add 2 μg DNA • incubate 30 minutes at RT • wash with PBS • add 50 μl transfectiemix • add 1 ml antibiotica-free medium
Day 3: Add Conditioned Medium or UM206
Day 4: Luciferase Activity Measurements • remove medium • wash with PBS • add 500 μl ⅕ lysisbuffer • shake for 60 minutes • centrifuge in tube • 20 μl lysaat and 50 μl luciferase in new tube for measurement • vortex • measure
Three areas of high homology that contained two cysteines are underlined (UM207), (UM208) and (UM206). In FIGS. 9B through 9D, the inhibitory effect of these three peptides on Wnt3a-induced luciferase activity in HEK293-superTOPflash is shown. […]

[2] = tested on: canonical Wnt signaling; test: Activity assay (Example 1): TOPflash luciferase reporter in HEK (HEK293-superTOPflash) cells, receptor not specified; assay type: cell-based, human; conditions: no Fzd transfection
[3] = tested on: Fzd-1 and -2; test: Binding of rhodamine-labeled UM206 to frozen sections of mouse kidney and small intestine and its blocking; conditions: UM206-rhodamine 1.10^−8 M; UM207 1.10^−7 M, Wnt3a 1.10^−8 M
Procedure: Specificity of the binding site was confirmed by prior incubation of the tissue sections with UM207 (1.10^−7 M) or recombinant Wnt3a (1.10^−8 M).
One-half of the hearts of the mice was embedded in paraffin and cut in 4 μm sections. The paraffin sections were rehydrated and washed in PBS. One section was stained with AZAN, allowing an accurate determination of the infarct size. To visualize the myofibroblasts in the infarct area, the sections were incubated with an antibody directed against α-smooth muscle actin (Sigma-Aldrich), followed by incubation with the peroxidase-conjugated secondary antibody (Vector laboratories). Nuclei were visualized by hematoxylin. Photos were taken with a Leica (CTR500, 63×/0.85) camera and analyzed with the Quantimet program (QWin/QGo). An examiner blinded to the groups of the animals obtained all measurements. For the experiments with Rhodamine-labeled UM206, frozen sections (4 μm) of mouse kidney and small intestine were used.

T1 sequence (Q08464 29-570): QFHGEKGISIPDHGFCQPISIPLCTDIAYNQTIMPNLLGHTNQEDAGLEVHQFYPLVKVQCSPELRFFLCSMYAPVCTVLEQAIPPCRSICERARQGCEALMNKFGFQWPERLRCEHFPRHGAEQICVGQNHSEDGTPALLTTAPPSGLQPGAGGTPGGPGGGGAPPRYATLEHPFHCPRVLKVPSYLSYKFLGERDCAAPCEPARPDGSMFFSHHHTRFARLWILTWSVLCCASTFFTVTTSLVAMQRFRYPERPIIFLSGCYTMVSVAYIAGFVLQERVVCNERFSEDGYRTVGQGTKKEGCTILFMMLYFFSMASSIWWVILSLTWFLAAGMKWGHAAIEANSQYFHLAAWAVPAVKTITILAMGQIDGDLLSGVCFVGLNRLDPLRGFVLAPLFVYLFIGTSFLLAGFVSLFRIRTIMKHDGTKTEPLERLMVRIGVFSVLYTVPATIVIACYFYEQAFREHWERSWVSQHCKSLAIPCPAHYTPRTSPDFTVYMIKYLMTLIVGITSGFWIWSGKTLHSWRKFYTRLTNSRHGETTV

concentration-dependent increase of the luciferase activity, in combination with frizzled-2 [1]: twelve-fold
B1: Wnt3a: natural ligand of frizzled, natural stimulus for the canonical pathway; recombinant or conditioned medium (protein)
chain: SYPIWWSLAVGPQYSSLGSQPILCASIPGLVPKQLRFCRNYVEIMPSVAEGIKIGIQECQHQFRGRRWNCTTVHDSLAIFGPVLDKATRESAFVHAIASAGVAFAVTRSCAEGTAAICGCSSRHQGSPGKGWKWGGCSEDIEFGGMVSREFADARENRPDARSAMNRHNNEAGRQAIASHMHLKCKCHGLSGSCEVKTCWWSQPDFRAIGDFLKDKYDSASEMVVEKHRESRGWVETLRPRYTYFKVPTERDLVYYEASPNFCEPNPETGSFGTRDRTCNVSSHGIDGCDLLCCGRGHNARAERRREKCRCVFHWCCYVSCQECTRVYDVHTCK
increase of luciferase activity [2]: ~450 fold | blocking of UM206-rhodamine binding by prior incubation [3]: completely abolished the binding of UM206-rhodamine
